Data set [1] in a line: Stability assay in 1000-fold molar excess of EDTA solution (ITLC). The class given is physicochemical. The settings on record: competitor EDTA 1000-fold excess, 37 °C, n = 3. As for the experimental part:
Determination of the stability of [^89Zr]DFO, [^89Zr]TAFC, and [^89Zr]FSC-RGD conjugates was carried out by incubating the radioligands in PBS, 1000-fold molar excess of EDTA solution with different pH (pH 7 and pH 6; radioligand vs EDTA: 25 μM vs 25 mM) as well as in human serum for 7 days at 37 °C, respectively. At selected time points three aliquots of PBS and EDTA solution were analyzed directly via ITLC, while the three serum aliquots were mixed with 500 μL of CH3CN, vortexed, and centrifuged at 20,000 rcf for 2 min prior to analysis.

Data set [2] has as its system M21 cells (αvβ3 integrin positive). The experiment in a line: Internalization assay. The class given is cell-based, human. The settings on record: 37 °C, 90 min, total series. The procedure:
M21 cells (αvβ3 integrin positive) were diluted with RPMI 1640 (Gibco, Invitrogen Corporation, Paisley, UK) containing 1% glutamine (m/v), 1% bovine serum albumin (BSA) (m/v), CaCl2 (1 mM), MgCl2 (1 mM), and MnCl2 (10 mM) to a concentration of 2.0 × 10^6 cells/mL. Aliquots of 1 mL cell solution were transferred to Eppendorf tubes for incubation at 37 °C for 1 h. After addition of [^89Zr]FSC(RGDfE)3, [^89Zr]FSC(succ-RGD)3, or [^89Zr]FSC(Mal-RGD)3 (approximately 1.5 × 10^6 cpm), the cells were incubated in triplicates with either PBS with 0.5% BSA (150 μL, total series) or with 10 μM c(RGDyV) in PBS/0.5% BSA (150 μL, nonspecific series) at 37 °C for 90 min. After the incubation time the tubes were centrifuged, and incubation was stopped by removal of the medium. Then the cells were washed twice with ice-cold TRIS-buffered saline. Subsequently, the cells were incubated two times in acid wash buffer (20 mM acetate buffer, pH 4.5) at 37 °C for 5 min. Then the tubes were centrifuged, and the supernatant was collected in plastic vials (membrane bound activity). In a last step the cells were lysed by addition of 2 M NaOH, and the radioactivity associated with cells was collected in plastic vials (internalized radioligand fraction). Protein content in the NaOH fraction was determined using a spectrometric method (Bradford assay). The internalized activity was calculated and expressed as percentage of total activity per milligram protein.

The test system of data set [3] is αvβ3 integrin positive M21 and αvβ3 integrin negative M21-L tumor xenografts. The arrangement: species or system BALB/c nude mice. The settings on record: mouse, in vivo, iv, 1 h. As for the experimental part: (§1) For the evaluation of biodistribution, four healthy female BALB/c mice (Charles River Laboratories, Sulzfeld, GER) were intravenously injected with [^89Zr]TAFC (∼1.5 MBq/mouse, ∼4 μg of precursor) into the tail vein and sacrificed at 6 h postinjection (p.i.). For the evaluation of tumor uptake of [^89Zr]FSC(succ-RGD)3 female, athymic BALB/c nude mice (Charles River Laboratories) were used. For the induction of tumor xenografts mice were injected subcutaneously with 5 × 10^6 αvβ3 integrin positive M21 cells into the right hind limb and with 5 × 10^6 αvβ3 integrin negative M21-L cells (negative control) into the left hind limb of the same mouse (n = 4). The tumors were allowed to grow until they had reached a volume of 0.3 to 0.6 cm^3. On the day of the experiment [^89Zr]FSC(succ-RGD)3 (∼0.5 MBq/mouse, ∼0.5 μg of peptide) was intravenously injected in the lateral tail vein. Mice were sacrificed by cervical dislocation at 1, 2, and 4 h after injection. Organs (spleen, pancreas, stomach, intestine, kidney, liver, heart, and lung), blood, muscle tissue, bone, and tumors were dissected and weighted. As a comparison, four tumor-bearing mice were intravenously injected in the tail vein with [^68Ga]FSC(succ-RGD)3 (∼0.5 MBq/mouse, ∼0.5 μg of precursor) and sacrificed at 1 h p.i. Activity of the different samples was measured in the gamma counter. Results were expressed as percentage of injected dose per gram tissue (% ID/g).

For data set [4] the test system is unchanged. The class given is in vivo, BALB/c nude mice. The settings on record: ~5 MBq/mouse i.v., monitoring period of 24 h. As for the experimental part:
MicroPET/CT imaging experiments were conducted on an Inveon microPET/CT scanner (Siemens Preclinical Solutions, Knoxville, USA). A group of four M21-tumor xenograft bearing BALB/c nude mice were administered with [^89Zr]FSC(succ-RGD)3 (∼5 MBq/mouse, ∼5 μg of peptide) via intravenous tail vein injection. MicroPET images were acquired under general anesthesia (isoflurane/O2) for 20 min. PET data for each mouse were recorded via static scans at 1, 4, and 24 h p.i. The microPET scans were reconstructed with Inveon Acquisition Workplace software (version 1.5; Siemens Preclinical Solutions), using a 3-dimensional fast maximum a posteriori algorithm with the following parameters: matrix, 256 × 256 × 161; pixel size, 0.4 × 0.4 × 0.8 mm; β-value of 1.5 mm resolution with uniform variance.

The conditions of data set [5]: pH 7.4.
On the set-up of data set [6]: species or system BALB/c nude mice. As to conditions: mouse, in vivo, iv. The procedure:
as §1

Setting [7] is: uptake in αvβ3 integrin positive M21 tumor.

Like-named read-outs stand apart in the source and are kept apart here.

In the case of `C/C1=C/C(=O)N(O)CCC[C@H](NC(=O)CCC(=O)NCCCC[C@@H]2NC(=O)[C@@H](Cc3ccccc3)NC(=O)[C@H](CC(=O)O)NC(=O)CNC(=O)[C@H](CCCNC(=N)N)NC2=O)C(=O)OCC/C(C)=C\C(=O)N(O)CCC[C@H](NC(=O)CCC(=O)NCCCC[C@@H]2NC(=O)[C@@H](Cc3ccccc3)NC(=O)[C@H](CC(=O)O)NC(=O)CNC(=O)[C@H](CCCNC(=N)N)NC2=O)C(=O)OCC/C(C)=C\C(=O)N(O)CCC[C@H](NC(=O)CCC(=O)NCCCC[C@@H]2NC(=O)[C@@H](Cc3ccccc3)NC(=O)[C@H](CC(=O)O)NC(=O)CNC(=O)[C@H](CCCNC(=N)N)NC2=O)C(=O)OCC1` [[^89Zr]FSC(succ-RGD)3] [metal not drawn], the “% intact starting species by incubation time” value in data set [1] (pH 7, 1 h) turned out to be 98.2 ± 0.1%; in data set [1] (pH 7, 4 h) it was 98.2 ± 0.1%; in data set [1] (pH 7, 1 d) it was 96.5 ± 0.5%; in data set [1] (pH 7, 3 d) it was 96.0 ± 0.4%; in data set [1] (pH 7, 5 d), 94.5 ± 0.3%; in data set [1] (pH 7, 7 d), 93.9 ± 0.7%. For the same compound, in data set [2], the “internalized activity, % of total activity per milligram protein” value worked out at 2.1 ± 0.3 % cpm/mg. In data set [3], the blood activity was determined as 0.16 ± 0.04 % ID/g. Further, in data set [4], the “uptake in αvβ3 integrin negative M21-L tumors in microPET/CT” value is on record as “no uptake”. In addition, the “visualization of αvβ3 integrin positive M21 tumors in microPET/CT” value in data set [4] is given as “clearly visualized over the whole monitoring period of 24 h”.

As for `C/C1=C/C(=O)N(O)CCC[C@H](NC(=O)CCC(=O)NCCCC[C@@H]2NC(=O)[C@@H](Cc3ccccc3)NC(=O)[C@H](CC(=O)O)NC(=O)CNC(=O)[C@H](CCCNC(=N)N)NC2=O)C(=O)OCC/C(C)=C\C(=O)N(O)CCC[C@H](NC(=O)CCC(=O)NCCCC[C@@H]2NC(=O)[C@@H](Cc3ccccc3)NC(=O)[C@H](CC(=O)O)NC(=O)CNC(=O)[C@H](CCCNC(=N)N)NC2=O)C(=O)OCC/C(C)=C\C(=O)N(O)CCC[C@H](NC(=O)CCC(=O)NCCCC[C@@H]2NC(=O)[C@@H](Cc3ccccc3)NC(=O)[C@H](CC(=O)O)NC(=O)CNC(=O)[C@H](CCCNC(=N)N)NC2=O)C(=O)OCC1` [[^68Ga]FSC(succ-RGD)3] [metal not drawn, reference compound], in data set [3], the blood activity amounted to 0.63 ± 0.26 % ID/g, the “uptake in the spleen” value came to 3.27 ± 0.64 % ID/g and the “uptake in αvβ3 integrin negative M21-L tumors” value was 1.10 ± 0.30 % ID/g.

Regarding `C/C1=C/C(=O)N(O)CCC[C@H](NC(=O)CC[C@@H]2NC(=O)[C@@H](Cc3ccccc3)NC(=O)[C@H](CC(=O)O)NC(=O)CNC(=O)[C@H](CCCNC(=N)N)NC2=O)C(=O)OCC/C(C)=C\C(=O)N(O)CCC[C@H](NC(=O)CC[C@@H]2NC(=O)[C@@H](Cc3ccccc3)NC(=O)[C@H](CC(=O)O)NC(=O)CNC(=O)[C@H](CCCNC(=N)N)NC2=O)C(=O)OCC/C(C)=C\C(=O)N(O)CCC[C@H](NC(=O)CC[C@@H]2NC(=O)[C@@H](Cc3ccccc3)NC(=O)[C@H](CC(=O)O)NC(=O)CNC(=O)[C@H](CCCNC(=N)N)NC2=O)C(=O)OCC1` [[^89Zr]FSC(RGDfE)3, metal not drawn], in data set [2], the “internalized activity, % of total activity per milligram protein” value stood at 2.3 ± 0.3 % cpm/mg. The compound also showed a logD in data set [5] of -3.

Consider `C/C1=C/C(=O)N(O)CCC[C@H](NC(=O)CCC(=O)NCCCC[C@@H]2NC(=O)[C@@H](Cc3ccccc3)NC(=O)[C@H](CC(=O)O)NC(=O)CNC(=O)[C@H](CCCNC(=N)N)NC2=O)C(=O)OCC/C(C)=C\C(=O)N(O)CCC[C@H](NC(=O)CCC(=O)NCCCC[C@@H]2NC(=O)[C@@H](Cc3ccccc3)NC(=O)[C@H](CC(=O)O)NC(=O)CNC(=O)[C@H](CCCNC(=N)N)NC2=O)C(=O)OCC/C(C)=C\C(=O)N(O)CCC[C@H](NC(=O)CCC(=O)NCCCC[C@@H]2NC(=O)[C@@H](Cc3ccccc3)NC(=O)[C@H](CC(=O)O)NC(=O)CNC(=O)[C@H](CCCNC(=N)N)NC2=O)C(=O)OCC1` [[^89Zr]FSC(succ-RGD)3, metal not drawn], for which the tissue uptake at 1 h stood at 6.42 ± 0.72 %ID/g in data set [6] (activity in kidneys), 0.71 ± 0.05 %ID/g in data set [6] (activity in the bone), 1.78 ± 0.22 %ID/g in data set [6] (uptake in the spleen) and 2.83 ± 0.6 %ID/g in data set [6] (setting [7]). Further, the tissue uptake at 2 h turned out to be 5.77 ± 0.2 %ID/g in data set [6] (activity in kidneys), 0.79 ± 0.28 %ID/g in data set [6] (activity in the bone), 0.15 %ID/g in data set [6] (blood activity) and 3.48 ± 0.45 %ID/g in data set [6] (setting [7]). Besides, the tissue uptake at 4 h in data set [6] (activity in kidneys) came to 5.26 ± 0.9 %ID/g; in data set [6] (activity in the bone), 0.73 ± 0.27 %ID/g; in data set [6] (blood activity), 0.1 ± 0.01 %ID/g; in data set [6] (uptake in αvβ3 integrin negative M21-L tumors) it was 0.5 %ID/g; in data set [6] (setting [7]), 2.86 ± 0.3 %ID/g. In addition, in data set [5], the logD is -2.9.

As for `C/C1=C/C(=O)N(O)CCC[C@H](NC(=O)CCN2C(=O)CC(SCCOCCOCCOCCOCCC(=O)NCCCC[C@@H]3NC(=O)[C@@H](Cc4ccccc4)NC(=O)[C@H](CC(=O)O)NC(=O)CNC(=O)[C@H](CCCNC(=N)N)NC3=O)C2=O)C(=O)OCC/C(C)=C\C(=O)N(O)CCC[C@H](NC(=O)CCN2C(=O)CC(SCCOCCOCCOCCOCCC(=O)NCCCC[C@@H]3NC(=O)[C@@H](Cc4ccccc4)NC(=O)[C@H](CC(=O)O)NC(=O)CNC(=O)[C@H](CCCNC(=N)N)NC3=O)C2=O)C(=O)OCC/C(C)=C\C(=O)N(O)CCC[C@H](NC(=O)CCN2C(=O)CC(SCCOCCOCCOCCOCCC(=O)NCCCC[C@@H]3NC(=O)[C@@H](Cc4ccccc4)NC(=O)[C@H](CC(=O)O)NC(=O)CNC(=O)[C@H](CCCNC(=N)N)NC3=O)C2=O)C(=O)OCC1` (stereo partly shown) [[^89Zr]FSC(Mal-RGD)3, metal not drawn], the “internalized activity, % of total activity per milligram protein” value in data set [2] worked out at 1.6 ± 0.1 % cpm/mg. The compound also showed a pH-dependent lipophilicity (logD) in data set [5] of -2.9.

Values taken from PMC4453016, “Novel Bifunctional Cyclic Chelator for ^89Zr Labeling–Radiolabeling and Targeting Properties of RGD Conjugates” (Molecular Pharmaceutics, 2015).
